Our source for the Kd values is paper PMC11211491 (2024).

The experiment concerns the target His-tagged SRPK1ΔNS3 (UniProt Q96SB4 1-655). Briefly: MST.

Square brackets hold non-standard residues; d marks the D form. Dap = NC[C@H](N)C(=O)O

His-tagged SRPK1ΔNS3, sequence (Q96SB4 other isoform, or with tags, fused parts or gaps mutant): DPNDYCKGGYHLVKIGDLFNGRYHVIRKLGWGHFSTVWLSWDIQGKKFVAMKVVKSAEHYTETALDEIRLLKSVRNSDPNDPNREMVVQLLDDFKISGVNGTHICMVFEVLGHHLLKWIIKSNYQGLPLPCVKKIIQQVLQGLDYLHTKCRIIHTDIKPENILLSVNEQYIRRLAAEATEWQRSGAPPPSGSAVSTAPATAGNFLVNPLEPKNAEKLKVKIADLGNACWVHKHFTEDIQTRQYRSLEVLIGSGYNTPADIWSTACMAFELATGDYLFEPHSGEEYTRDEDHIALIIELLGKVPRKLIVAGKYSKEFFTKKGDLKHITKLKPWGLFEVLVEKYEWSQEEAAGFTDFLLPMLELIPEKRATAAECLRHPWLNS

In the case of Ac-RERARTRR[Dap](aryl‑SO2F)RARTRERARTR-NH2 [covalent docking blocker of SRPK (C-DBS)], the Kd stood at 1470 nM. That is a single-digit micromolar value.

In general, Kd refers to the concentration at which binding is half-saturated.
